From patent US20260001953A1 (TWIST BIOSCIENCE, published 2026)
Residue numbers refer to the chain shown, from its start.

T1: SIGLEC-5 (limits assumed)
T1 construct: also called OB-BP-2
T1 receptor: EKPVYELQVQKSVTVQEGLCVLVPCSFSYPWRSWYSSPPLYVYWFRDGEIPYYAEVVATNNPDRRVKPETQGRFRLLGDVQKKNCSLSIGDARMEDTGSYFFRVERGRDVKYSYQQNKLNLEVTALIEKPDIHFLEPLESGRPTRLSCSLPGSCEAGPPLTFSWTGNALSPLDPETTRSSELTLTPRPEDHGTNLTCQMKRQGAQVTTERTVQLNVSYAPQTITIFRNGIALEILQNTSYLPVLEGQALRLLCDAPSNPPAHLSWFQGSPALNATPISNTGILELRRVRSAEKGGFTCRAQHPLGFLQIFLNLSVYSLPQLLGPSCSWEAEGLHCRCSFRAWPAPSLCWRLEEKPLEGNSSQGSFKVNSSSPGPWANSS

B1: CD117-6 (antibody, human IgG1, kappa, V domains shown)
VH: EVQLLESGGGLVQPGGSLRLSCAASGFTFSAYALTWVRQAPGKGLEWVSAISSSGGSTFYADSVKGRFTISRDNSKNTLYLQMNSLRAEDTAVYYCARVSRGYPRRSDSWGQGTLVTVSS
VL: DIQMTQSPSSLSASVGDRVTTTCRASQGISTYLNWYQQKPGKAPKLLIYGASRLQGGVPSRFSGSGSGTDFTLTISSLQPEDFATYYCQQGYSFPWTFGGGTKVEIKR
notes: detected with anti-human IgG in FACS
B2: SIGLEC-8-11 (antibody, human IgG1, kappa, V domains shown)
VH: EVQLLESGGGLVQPGGSLRLSCAASGLTFSNYDMSWVRQAPGKGLEWVSAISTSGGGSGGSTYYADSVKGRFTISRDNSKNTLYLQMNSLRAEDTAVYYCAREANNYYYGMDVWGQGTLVTVSS
VL: DIQMTQSPSSLSASVGDRVTITCRASQTISSYLHWYQQKPGKAPKLLIYAASSLHTGVPSRFSGSGSGTDFTLTISSLQPEDFATYYCQQSSSTPLTFGGGTKVEIKR
notes: tested as expressed and purified mAb
B3: SIGLEC-8-7 (antibody, human IgG1, kappa, V domains shown)
VH: EVQLLESGGGLVQPGGSLRLSCAASGFTFSNHAMAWVRQAPGKGLEWVSGISGSAASTYYADSVKGRFTISRDNSKNTLYLQMNSLRAEDTAVYYCARDLLALPYAFDIWGQGTLVTVSS
VL: B2 VL with T28S, I29T, H34S, A51V, S53T, H55Q, T56S, S92Y, T94V
notes: as for B2
B4: SIGLEC-8-17 (antibody, human IgG1, kappa, V domains shown)
VH: EVQLLESGGGLVQPGGSLRLSCAASGFPFSNYAMGWVRQAPGKGLEWVSGISASGSSTYYADSVKGRFTISRDNSKNTLYLQMNSLRAEDTAVYYCAREDSGKYLSLDYWGQGTLVTVSS
VL: B2 VL with A25T, T28S, Y32H, H34N, H55Q, T56P, S92Y, S93N, L96P
notes: as for B2
B5: SIGLEC-8-58 (antibody, human IgG1, kappa, V domains shown)
VH: EVQLLESGGGLVQPGGSLRLSCAASGFTFRTSAMSWVRQAPGKGLEWVSSVSGSGSSTYYADSVKGRFTISRDNSKNTLYLQMNSLRAEDTAVYYCAKEGSYYYYGMDVWGQGTLVTVSS
VL: B2 VL with S30G, S31R, H34N, A50G, H55Y, T56S, S92Y, S93K, L96V
notes: as for B2
B6: SIGLEC-8-19 (antibody, human IgG1, kappa, V domains shown)
VH: EVQLLESGGGLVQPGGSLRLSCAASGFTFRTYDMSWVRQAPGKGLEWVSAISGGGGSTYYADSVKGRFTISRDNSKNTLYLQMNSLRAEDTAVYYCARDSSYRWFSMDVWGQGTLVTVSS
VL: B1 VL with T21I, S26G, G28S, R53K, G56S, G91T, S93R, F94T, W96L
notes: as for B2
B7: SIGLEC-8-57 (antibody, human IgG1, kappa, V domains shown)
VH: EVQLLESGGGLVQPGGSLRLSCAASGFAFSRYAMSWVRQAPGKGLEWVSGISGSGGRTHYADSVKGRFTISRDNSKNTLYLQMNSLRAEDTAVYYCARQSRGGSLGMDVWGQGTLVTVSS
VL: B1 VL with T21I, G28S, T31G, A51S, R53T, G56S, G91S, F94P
notes: as for B2
B8: SIGLEC-8-34 (antibody, human IgG1, kappa, V domains shown)
VH: B5 VH with R30S, T31R, S32H, S35G, V51I, S56Y, K98R, G100N, S101G, Y102Q
VL: B2 VL with S30T, S31T, H34N, S53H, H55Q, S92Y, T97S
notes: as for B2
B9: SIGLEC-8-32 (antibody, human IgG1, kappa, V domains shown)
VH: EVQLLESGGGLVQPGGSLRLSCAASGFTLSSYVMSWVRQAPGKGLEWVSAISGSGATTYYADSVKGRFTISRDNSKNTLYLQMNSLRAEDTAVYYCAREVAGIFDYWGQGTLVTVSS
VL: B2 VL with A25S, T28S, S31T, H34N, S53Y, H55Q, T56S, S92Y, S93D
notes: as for B2
B10: SIGLEC-8-48 (antibody, human IgG1, kappa, V domains shown)
VH: EVQLLESGGGLVQPGGSLRLSCAASGFNFRSYAMSWVRQAPGKGLEWVSGISGSGGSAYYADSVKGRFTISRDNSKNTLYLQMNSLRAEDTAVYYCAREGYNWAVDYWGQGTLVTVSS
VL: B1 VL with T21I, G28S, T31G, Y32F, R53I, G56S, G91T, F94T, W96R, T97S
notes: as for B2
B11: SIGLEC-8-24 (antibody, human IgG1, kappa, V domains shown)
VH: B6 VH with R30S, T31S, Y32T, D33A, G54T, D99E, S101D, R103D, W104Y, S106G
VL: B2 VL with T28S, I29V, L33V, H34N, A50G, H55Q, T56D, S92Y, T94V, L96V
notes: as for B2
B12: SIGLEC-8-44 (antibody, human IgG1, kappa, V domains shown)
VH: EVQLLESGGGLVQPGGSLRLSCAASGFTISSSAMTWVRQAPGKGLEWVSSISGGGGTTYYADSVKGRFTISRDNSKNTLYLQMNSLRAEDTAVYYCAREGAGYYYGMDVWGQGTLVTVSS
VL: B2 VL with T28S, S30G, S31N, H34N, S53R, H55Q, T56G, S92Y, T97S
notes: as for B2
B13: SIGLEC-8-10 (antibody, human IgG1, kappa, V domains shown)
VH: EVQLLESGGGLVQPGGSLRLSCAASGFTFNNYAMAWVRQAPGKGLEWVSAISGSGSSPYYADSVKGRFTISRDNSKNTLYLQMNSLRAEDTAVYYCARDQIVAMDVWGQGTLVTVSS
VL: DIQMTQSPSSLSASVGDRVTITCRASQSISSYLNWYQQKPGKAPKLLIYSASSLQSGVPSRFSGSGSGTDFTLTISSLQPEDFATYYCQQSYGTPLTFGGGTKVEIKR
notes: as for B2
B14: SIGLEC-8-54 (antibody, human IgG1, kappa, V domains shown)
VH: B13 VH
VL: B2 VL with A25G, T28S, H34N, A50D, H55Q, T56S, S92Y, S93R, L96I
notes: as for B2

Target: T2, CD117 transiently expressed on Expi293 cells (UniProt P10721 26-976, limits assumed)
T2 construct: whole, on cells; Two cassettes are described (P2A mVenus and direct mVenus fusion); also called CD117 transient cells; the transient cell line
T2 sequence (P10721 26-976 limits assumed): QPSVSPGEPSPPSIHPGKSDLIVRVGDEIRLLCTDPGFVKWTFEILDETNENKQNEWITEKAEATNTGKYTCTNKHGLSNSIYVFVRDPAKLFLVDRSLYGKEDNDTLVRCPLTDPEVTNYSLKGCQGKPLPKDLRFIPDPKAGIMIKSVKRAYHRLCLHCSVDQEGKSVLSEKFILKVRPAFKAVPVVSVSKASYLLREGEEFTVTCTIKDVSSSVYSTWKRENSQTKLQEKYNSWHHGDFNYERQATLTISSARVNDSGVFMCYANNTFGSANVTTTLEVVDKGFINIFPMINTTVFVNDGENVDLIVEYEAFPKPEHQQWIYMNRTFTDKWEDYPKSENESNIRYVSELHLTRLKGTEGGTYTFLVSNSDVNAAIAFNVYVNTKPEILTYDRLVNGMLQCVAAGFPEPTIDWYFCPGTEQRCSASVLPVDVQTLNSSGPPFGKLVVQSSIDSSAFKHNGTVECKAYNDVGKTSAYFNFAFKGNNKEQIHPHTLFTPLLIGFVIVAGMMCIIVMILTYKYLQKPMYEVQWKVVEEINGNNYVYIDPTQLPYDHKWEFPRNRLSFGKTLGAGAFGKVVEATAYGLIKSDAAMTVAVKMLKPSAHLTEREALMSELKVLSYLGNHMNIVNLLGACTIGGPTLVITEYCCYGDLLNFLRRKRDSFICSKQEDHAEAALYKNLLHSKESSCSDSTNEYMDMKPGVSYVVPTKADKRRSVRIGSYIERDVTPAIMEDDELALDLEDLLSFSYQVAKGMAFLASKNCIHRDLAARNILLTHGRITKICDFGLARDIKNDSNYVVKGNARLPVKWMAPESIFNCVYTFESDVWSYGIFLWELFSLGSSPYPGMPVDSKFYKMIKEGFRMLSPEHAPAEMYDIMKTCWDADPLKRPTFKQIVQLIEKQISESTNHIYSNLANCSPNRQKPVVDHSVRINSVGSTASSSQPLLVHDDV
Experiment: FACS cell binding, Expi293 transiently expressing CD117
Experimental: The transient expression of CD117 was validated with a control antibody, Expi293 (FIGS. 17A-17B). Expi293, […], was transiently transfected with CD117 48-hours post-transfection. The secondary antibody used was APC Goat anti-human IgG (diluted 1:400). 100,000 cells per well were blocked with 1×PBS+0.5% BSA for 1 hour, stained with 100 μL of the primary antibody for 1 hour, and stained with the secondary antibody for one hour, all with 3× washes in between each staining.

| EC50 [nM] | Binder |
| --- | --- |
| 0.116 | B1 |

Target: T3, SIGLEC-7
T3 construct: also called p75/AIRM1
T3 sequence (receptor, as listed by the source limits assumed): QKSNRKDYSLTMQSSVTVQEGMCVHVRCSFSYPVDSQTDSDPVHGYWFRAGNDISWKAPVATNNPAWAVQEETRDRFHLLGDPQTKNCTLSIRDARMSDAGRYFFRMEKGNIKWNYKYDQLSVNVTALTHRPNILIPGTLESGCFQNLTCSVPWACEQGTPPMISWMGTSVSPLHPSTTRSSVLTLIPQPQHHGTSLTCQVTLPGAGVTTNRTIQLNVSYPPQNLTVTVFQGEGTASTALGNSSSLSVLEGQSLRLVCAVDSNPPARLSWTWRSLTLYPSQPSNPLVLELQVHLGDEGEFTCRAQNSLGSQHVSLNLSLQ
Experiment: SPR cross-reactivity table
In short: (§1)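 Clones from synthetic libraries, panned for four rounds using beads and screened by clonal ELISA, were expressed and purified. These anti-SIGLEC-8 antibodies were then checked by surface plasmon resonance on a Carterra instrument for cross-reactivity with related SIGLEC proteins. For each protein tested, a dissociation constant or binding result is given.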

| binding result | Kd [nM] | Binder |
| --- | --- | --- |
| no binding | – | B2 |
| no binding | – | B3 |
| no binding | – | B4 |
| no binding | – | B5 |
| no binding | – | B6 |
| no binding | – | B7 |
| no binding | – | B8 |
| – | 17.4 | B9 |
| no binding | – | B10 |
| no binding | – | B11 |
| no binding | – | B12 |
| no binding | – | B13 |
| no binding | – | B14 |

Target: T1, SIGLEC-5
Experiment: SPR cross-reactivity table
In short: as §1

| Kd [nM] | binding result | Binder |
| --- | --- | --- |
| 29.7 | – | B2 |
| 123 | – | B3 |
| – | no binding | B4 |
| 169 | – | B5 |
| 14.5 | – | B6 |
| 28.3 | – | B7 |
| 5.5 | – | B8 |
| 4.2 | – | B9 |
| – | no binding | B10 |
| 33.7 | – | B11 |
| 6.7 | – | B12 |
| – | no binding | B13 |
| 19.9 | – | B14 |

Target: T4, SIGLEC-2
T4 construct: also called CD22
T4 sequence (chain, as listed by the source limits assumed): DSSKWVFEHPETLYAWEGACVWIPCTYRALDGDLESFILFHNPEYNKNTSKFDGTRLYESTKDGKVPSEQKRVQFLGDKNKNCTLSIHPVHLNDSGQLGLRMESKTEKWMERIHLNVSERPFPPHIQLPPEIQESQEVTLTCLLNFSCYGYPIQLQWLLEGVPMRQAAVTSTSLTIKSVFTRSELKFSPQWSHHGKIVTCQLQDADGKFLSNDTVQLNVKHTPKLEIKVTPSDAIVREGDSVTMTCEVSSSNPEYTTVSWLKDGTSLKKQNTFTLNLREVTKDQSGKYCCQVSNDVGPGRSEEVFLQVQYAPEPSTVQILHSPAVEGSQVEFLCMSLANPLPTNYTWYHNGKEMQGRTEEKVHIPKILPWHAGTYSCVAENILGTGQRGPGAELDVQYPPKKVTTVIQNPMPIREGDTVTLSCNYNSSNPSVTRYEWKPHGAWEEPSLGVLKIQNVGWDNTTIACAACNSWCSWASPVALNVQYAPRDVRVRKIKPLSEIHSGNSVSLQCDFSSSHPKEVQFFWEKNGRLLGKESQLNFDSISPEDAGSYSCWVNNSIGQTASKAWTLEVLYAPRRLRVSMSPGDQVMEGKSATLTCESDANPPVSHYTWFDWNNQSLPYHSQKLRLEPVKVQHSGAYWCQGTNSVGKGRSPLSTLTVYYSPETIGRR
Experiment: SPR cross-reactivity table
In short: as §1

| binding result | Kd [nM] | Binder |
| --- | --- | --- |
| no binding | – | B2 |
| no binding | – | B3 |
| – | 836 | B4 |
| no binding | – | B5 |
| no binding | – | B6 |
| no binding | – | B7 |
| – | 208 | B8 |
| – | 128 | B9 |
| – | 629 | B10 |
| no binding | – | B12 |
| – | 755 | B13 |
| no binding | – | B14 |

Target: T5, SIGLEC-3
T5 construct: also called CD33
T5 sequence (receptor, as listed by the source limits assumed): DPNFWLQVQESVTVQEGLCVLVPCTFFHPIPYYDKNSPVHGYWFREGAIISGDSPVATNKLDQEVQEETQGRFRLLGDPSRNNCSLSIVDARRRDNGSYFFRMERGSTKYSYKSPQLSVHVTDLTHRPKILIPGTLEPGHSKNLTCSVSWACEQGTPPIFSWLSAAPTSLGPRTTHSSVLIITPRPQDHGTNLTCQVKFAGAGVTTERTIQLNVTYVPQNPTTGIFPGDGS
Experiment: SPR cross-reactivity table
In short: as §1

| binding result | Kd [nM] | Binder |
| --- | --- | --- |
| no binding | – | B2 |
| no binding | – | B3 |
| no binding | – | B4 |
| no binding | – | B5 |
| no binding | – | B6 |
| no binding | – | B7 |
| – | 62.2 | B8 |
| no binding | – | B10 |
| no binding | – | B11 |
| no binding | – | B12 |
| no binding | – | B13 |
| no binding | – | B14 |

Target: T6, SIGLEC-6
T6 construct: also called OB-BP-1
T6 sequence (receptor, as listed by the source limits assumed): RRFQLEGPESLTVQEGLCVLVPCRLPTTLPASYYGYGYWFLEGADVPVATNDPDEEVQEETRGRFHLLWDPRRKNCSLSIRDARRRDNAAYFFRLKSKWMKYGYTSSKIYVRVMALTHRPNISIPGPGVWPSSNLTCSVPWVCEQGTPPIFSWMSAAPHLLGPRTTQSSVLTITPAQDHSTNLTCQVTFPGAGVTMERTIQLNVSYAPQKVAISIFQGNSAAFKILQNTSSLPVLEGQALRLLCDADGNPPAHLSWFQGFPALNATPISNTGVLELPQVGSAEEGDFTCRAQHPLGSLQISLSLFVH
Experiment: SPR cross-reactivity table
In short: as §1

| binding result | Kd [nM] | Binder |
| --- | --- | --- |
| no binding | – | B2 |
| no binding | – | B3 |
| no binding | – | B4 |
| no binding | – | B5 |
| – | 1070 | B6 |
| – | 9.6 | B7 |
| – | 6.9 | B8 |
| – | 5.3 | B9 |
| no binding | – | B10 |
| no binding | – | B11 |
| – | 35.2 | B12 |
| no binding | – | B13 |
| – | 12 | B14 |

Target: T7, Sialic acid-binding immunoglobulin-like lectin 8 (SIGLEC-8), antigen of the Carterra SPR studies (UniProt Q9NYZ4 17-363, limits assumed)
T7 sequence (Q9NYZ4 17-363 limits assumed): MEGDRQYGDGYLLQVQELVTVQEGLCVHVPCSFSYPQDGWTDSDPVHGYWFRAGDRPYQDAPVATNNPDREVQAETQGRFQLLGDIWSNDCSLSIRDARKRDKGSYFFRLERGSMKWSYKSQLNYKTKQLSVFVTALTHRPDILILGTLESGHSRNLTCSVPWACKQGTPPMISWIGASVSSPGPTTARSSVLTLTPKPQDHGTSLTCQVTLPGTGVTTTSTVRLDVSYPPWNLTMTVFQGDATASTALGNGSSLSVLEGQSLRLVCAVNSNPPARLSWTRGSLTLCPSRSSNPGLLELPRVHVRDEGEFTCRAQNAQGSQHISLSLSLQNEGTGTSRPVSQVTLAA
Experiment: Carterra SPR kinetics, summary table
In short: (§2)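 Binding kinetics of antibodies to SIGLEC-8 were measured by surface plasmon resonance on a Carterra instrument. The antibodies came from synthetic antibody libraries panned over four rounds with a bead-based strategy and screened by clonal ELISA. Selected clones were expressed and purified before testing. The read-outs are rate constants, dissociation constants or results from these kinetic runs.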

| koff [s⁻¹] | kon [M⁻¹ s⁻¹] | Binder |
| --- | --- | --- |
| 7.23e-05 | 334000 | B2 |
| 0.000127 | 131000 | B5 |
| 0.000194 | 236000 | B11 |
| 0.000138 | 267000 | B12 |

Target: T8, SIGLEC-8 transiently expressed on cells (UniProt Q9NYZ4 17-499, limits assumed)
T8 construct: whole, on cells; Two cassettes are described (P2A mVenus and direct mVenus fusion); also called the transient line; pTT5-SIGLEC-8 P2A mVenus
T8 sequence (Q9NYZ4 17-499 limits assumed): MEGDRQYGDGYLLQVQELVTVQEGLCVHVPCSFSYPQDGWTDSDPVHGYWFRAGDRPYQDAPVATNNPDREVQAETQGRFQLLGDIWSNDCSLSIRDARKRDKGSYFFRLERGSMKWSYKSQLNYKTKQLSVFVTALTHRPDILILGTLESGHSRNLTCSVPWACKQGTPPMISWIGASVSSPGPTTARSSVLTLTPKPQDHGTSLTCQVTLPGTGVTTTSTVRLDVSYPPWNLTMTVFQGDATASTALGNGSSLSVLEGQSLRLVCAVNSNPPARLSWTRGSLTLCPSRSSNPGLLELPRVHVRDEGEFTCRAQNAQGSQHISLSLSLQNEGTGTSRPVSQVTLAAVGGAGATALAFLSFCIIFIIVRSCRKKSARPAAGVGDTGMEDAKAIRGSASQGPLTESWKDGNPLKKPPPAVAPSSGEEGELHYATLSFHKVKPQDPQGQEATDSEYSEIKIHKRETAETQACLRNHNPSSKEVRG
Experiment: cell binding titration, transient SIGLEC-8 line

| EC50 [nM] | Binder |
| --- | --- |
| 2.19 | B2 |
| 0.813 | B3 |
| 1.25 | B4 |
| 0.914 | B5 |
| 1.73 | B7 |
| 1.95 | B8 |
| 3.81 | B9 |
| 12.3 | B10 |
| 1.05 | B11 |
| 1.07 | B12 |
| 1.09 | B13 |
| 0.527 | B14 |

Target: T7, Sialic acid-binding immunoglobulin-like …
Experiment: Carterra SPR
In short: as §2

| Kd [nM] | Binder |
| --- | --- |
| 0.217 | B2 |
| 1.12 | B3 |
| 8.89 | B4 |
| 0.97 | B5 |
| 4.86 | B6 |
| 990 | B7 |
| 9.23 | B8 |
| 19.2 | B9 |
| 336 | B10 |
| 0.822 | B11 |
| 0.517 | B12 |
| 3.17 | B13 |
| 1.06 | B14 |

Target: CD117-GFP transiently overexpressed in HEK293T cells (UniProt P10721 26-976)
Experiment: cell-based or functional assay

| IC50, inhibition of the SCF-stimulated SRF reporter signal (FFLuc/RLuc); same row prints log(IC50) -8.147 and Span -0.2026 [M] | Binder |
| --- | --- |
| 7.13e-09 | B1 |
